Patent US20110201105A1, “LACTATION-ASSOCIATED POLYPEPTIDES” (Dairy Australia Limited, priority 2007, published 2011)
Entries after “also recorded” stand apart in the source; their conditions may differ.

B1: LAM 32: Cathelicidin antimicrobial peptide; tammar wallaby polypeptide SEQ ID NO 188, bovine SEQ ID NO 220 (protein)
chain: QALSYREAVLRAVDQLNEQSSEPNIYRLLELDQPPQDDEDPDSPKRVSFRVKETVCSRTTQQPPEQCDFKENGLLKRCEGTVTLDQVRGNFDITCNNHQSIRITKQPWAPPQAARLCRIVVIRVCR
B2: LAM 19: EBP: Emopamil binding protein (sterol isomerase); tammar polypeptide SEQ ID NO 49, bovine SEQ ID NO 109 (protein)
chain: MTTNTSPMHPYWPRHLRLDNFVPNDYPTWHILAGLFSVSGVLVVATWLLSGRAAVVPLGTWRRLSLCWFAVCGFIHLVIEGWFSLYHADLLGDQAILSQLWKEYAKGDSRYILNDNFMICMETVTAYLWGPLSLWVVIAFLRHQPLRFVLQLVVSMGQVYGDVLYFLTEYRDGFQHGELGHPLYFWFYFVFLNSLWLVVPGLLILDSIKQLAHAQSILDAKAPKAKSKQXLKSDELGLNTGYEELSTYQKIPILAPTGRKDKLN
modifications: X: residue not identified in the source; ends and bridges not checked

Columns and labels:
HC11 cells = test: Cell growth with cathelicidins in HC11 cells; assay type: cell-based, mouse; parameters: cell growth Rep. 1 / cell growth Rep. 2 / cell growth Rep. 3 / cell growth Rep. 4 / cell growth Mean: unit not given here; details: 72 hours
Protocol: FIG. 2. Cellular growth assay with HC11 cells. Mouse mammary epithelial cells, HC11 cells, were grown in media conditioned with: mock transfection (control), LAM32, LAM32a or LAM32b for 72 hours. Samples were performed in triplicate and the cells from each triplicate counted in triplicate. […] LAM 32 is represented as set forth in SEQ ID NO: 188, and two splice variants thereof, designated LAM32a and 32b as set forth in SEQ ID NO: 215 and 207 respectively.
As shown in FIG. 2 equal numbers of mouse mammary HC11 cells were grown in the presence of either a negative control or tammar wallaby cathelicidin-associated polypeptide, namely LAM 32 (SEQ ID NO: 188), LAM 32a (SEQ ID NO: 215) or LAM 32b (SEQ ID NO: 207) in order to determine the effect of these LAMs on cellular growth.
(§1) HC11 cells were initially plated at 50 percent confluency and cultured for 72 hours in a 1:10 dilution of serum and antibiotic free Optimem and media conditioned with cathelicidin associated polypeptides. The medium was removed and then washed gently for 2 minutes with Mg^2+- and Ca^2+-free phosphate buffered saline (PBS), 0.05% Trypsin and 1:5000 Versene to disrupt cell aggregates. Cells were collected by scraping and washed twice by resuspension in complete medium followed by centrifugation. The cells were again resuspended and counted in triplicate using a Luber haemocytometer.
(§2) The cells were counted in triplicate using a Luber haemocytometer. The negative control was media alone (i.e. conditioned media […] insertless vector). The samples were deemed statistically significant using a t-test comparing the control with the sample if the values of cell growth were 2 standard deviations higher than the mean of the negative control.

mouse ES cells = test: Cell growth with cathelicidins in mouse ES cells; assay type: cell-based; parameters: cell growth Rep. 1 / cell growth Rep. 2 / cell growth Rep. 3 / cell growth Mean: unit not given here; details: 24 hours
Protocol: as §1, with “Mouse ES” for “HC11”, “were” for “were initially”, “24” for “72”, “saline” for “saline (PBS),”
as §2

[1] = tested on: bovine mammary epithelial cells; test: Cellular morphology assay, bovine mammary epithelial cells; assay type: cell-based; details: 1:5 dilution of secreted polypeptide, 48 hours (FIG. 6)
Protocol: FIG. 6. Cellular morphology assay. To determine the ability of LAMs to influence cellular morphology, bovine mammary epithelial cells were plated onto a extracellular matrix and the cells were subsequently allowed to migrate to form mammospheres in the presence or absence of each LAM. The figure contains Panel A (Negative control) and Panels B to G (Presence of a LAM for which one LAM polypeptide is represented in one panel).
Candidate LAM polypeptides that are able to regulate the function and differentiation of the mammary gland were screened by culturing bovine mammary epithelium in the presence of a 1:5 dilution of the secreted polypeptide LAMs for 48 hours as described for the TGR assays in Example 4. Cells were examined microscopically for gross morphological changes and for their ability to induce cell differentiation.

ERK1/2 = ERK1/2 activation in Swiss 3T3 cells by bovine polypeptides; assay type: cell-based; details: cell supernatants containing bovine polypeptide, listed as CAMP
Protocol: Swiss 3T3 cells were treated with cell supematants containing bovine TCN 1 polypeptide. […] An increase in relative fluorescence units over the control indicates ERK activation.
Aliquots of the CRC-IDP samples were used to activate HSC-2 cells in a 96 well plate. Confluent and serum-starved cells were presented with the samples at a final dilution of 1:2. Cells were also stimulated with an internal control for activation of cells (Stim=10% serum) or left unstimulated (unstim). After 10 minutes with the CRC-IDP samples or control stimulus, cells were lysed and assayed for ERK activation using TGR's proprietary assay technology (SureFire). FIG. 12 presents the results as the mean+/−SEm of 3 separate samples. The data is from a single experiment.

p38 MAPK = p38 MAPK assay of inflammatory activity in RAW macrophage cells; assay type: cell-based
Protocol: Plasmids containing Tammar wallaby LAMs were directionally cloned into the expression vector pCMV Sport 6.0, and then transfected into the human kidney cell line HK293. A total of 1 μg of LAM-containing plasmid DNA and 10 ng of pEGFP-C1 plasmid was introduced into 70% confluent HK293 cells in 2 cm^2 wells containing 500 ul of opti-MEM-1 media. Transfection success was assessed by observing green fluorescence of cells by fluorescent microscopy. After 48 hours conditioned media containing the secreted polypeptide was collected and frozen at −20° C. The media containing the secreted polypeptides was then used directly in a variety of bioactivity assays. For the assays described below, samples of secreted polypeptides were aliquoted into individual wells of 96 or 384 well plates and stored, prior to assaying, either frozen or lyophilized.
A negative control created by transfection with an insertless vector was used in all assays. For the assays described in Examples 4A, 4B, 4C and 4D results for samples were in the form of relative fluorescence units (RFU) as described herein. […] In some cases, RFU less than two standard deviations from the mean were considered significant if the LAM sample in question produced a positive result in another assay. […]
Activation of p38 MAPK was assessed in RAW macrophage cells. […]

trefoil 1 = test: Induction of trefoil proteins in AGS cells (peroxidase immunodetection); assay type: cell-based, human
Protocol: FIGS. 11A and B: Peroxidase assay for trefoil activity. Supematants of HEK293 cells expressing tammar mammary clones were applied to the human gastric epithelial cell line, AGS, for 48 hours. The resultant AGS cell conditioned media containing stimulated AGS cell secreted proteins, and the AGS cells, were lysed. Samples of the AGS cell secreted proteins and cell lysates, and a recombinant positive control were transferred to a solid support and probed using a rabbit anti-trefoil 1 antibody and a secondary goat anti-rabbit antibody conjugated to horse radish peroxidase was used to detect the trefoil 1. A: Detection of secreted trefoil 1 in supematants from stimulated AGS cells. B: Detection of expression of trefoil 1 in stimulated AGS cell lysate samples.
In addition, supernatants of HEK293 cells expressing tammar mammary clones were applied to the human gastric epithelial cell line, AGS, for 48 hours. The resultant AGS cell conditioned media containing stimulated AGS cell secreted proteins (i.e. supernatant) were collected and the AGS cells were lysed. […]

chicks = test: Chick growth assay (in ovo injection, weight at hatching); assay type: in vivo
Protocol: FIG. 5. Chick growth assay by measuring weight. 10 LAMs (being bovine homologues having homology to specific Tammar ESTs), 3 known bovine cathelicidins, and four bovine cathelicidin variants were tested. Conditioned media containing a LAM polypeptides or bovine cathelicidins or variants thereof was diluted in a total of 1 ml of normal saline. Eggs on day 16 of incubation were injected with 1 ml of the media containing the into the broad end of the egg. Chicks were weighed on day of hatching. The overall condition of the chick was assessed including the possible presence of stumpy legs and/or loss of down feathers.
Conditioned media containing LAM polypeptides or bovine cathelicidins or variants thereof were diluted in a total of 1 ml of normal saline. Eggs on day 16 of incubation were injected in ovo with 1 ml of LAM polypeptides or bovine cathelicidins or variants thereof into the broad end of the egg. Chicks were weighed on day of hatching. Controls included saline only, or saline and 10 mg/ml of a peptide as a random peptide control.
As set out in Table 23, the left column indicates the polypeptide used in the assay while the right column contains chick weight in grams as a measurement of chick growth. Bolded numbers represent a chick(s) larger than the controls and more than 2 standard deviations from the mean. In addition, bolded numbers represent chicks that have been killed. The mean represents the weight of all the chicks tested within this experiment.

[2] = tested on: mouse embryonic stem (ES) cells; test: Cellular differentiation assay, mouse ES cells with Oct4-βgal transgene; assay type: cell-based; details: tammar wallaby polypeptides, LIF 1000 U/ml, 1:5 dilution, 48 hours (FIG. 7)
Protocol: FIG. 7. Cellular differentiation assay. To determine the ability of LAMs to influence cell differentiation, mouse embryonic stem (ES) cells were cultured in the presence of leukemia inhibitory factor (LIF) 1000 U/ml and the LAM in question a 1 in 5 dilution of the secreted polypeptides and cultured for 48 hours. […] This figure contains Panel A (Negative control) and Panels B to L (Presence of a LAM for which one LAM polypeptide is represented in one panel).
To determine the ability of LAMs to influence cellular differentiation, mouse embryonic stem (ES) cells were cultured in the presence of a leukemia inhibitory factor (LIF) 1000 U/ml and a 1:5 dilution of the secreted polypeptide LAMs for 48 hours.

Molecule | cell growth Rep. 1 (HC11 cells; 1:10 dilution conditioned media, -ve control 0.727) | cell growth Rep. 2 (HC11 cells; -ve control 0.76) | cell growth Rep. 3 (HC11 cells; -ve control 0.786) | cell growth Rep. 4 (HC11 cells; -ve control 0.808) | cell growth Mean (HC11 cells; -ve control mean 0.77025) | cell growth versus control (significance) (HC11 cells; P<0.05 t-test) | cell growth Rep. 1 (mouse ES cells; 1:10 dilution conditioned media, -ve control 0.34) | cell growth Rep. 3 (mouse ES cells; -ve control 0.352) | cell growth Rep. 2 (mouse ES cells; -ve control 0.474) | cell growth Mean (mouse ES cells; -ve control mean 0.388666667) | influence on cellular morphology [1] | ERK1/2 activation (ERK1/2) | RFU (p38 activation, pro-inflammatory activity) (p38 MAPK; 30 minutes, Mean RFU 12253, SD RFU 7395, negative control 11004 RFU) | pro-inflammatory activity (RFU significantly above the mean) (p38 MAPK; text summary of Tables 12 and 13) | Trefoil-inducing activity: Function (trefoil 1; 48 hours, trefoil 1 in supernatant (secretion) and cell lysate (expression)) | trefoil 1 expression and/or secretion (trefoil 1; Table 16) | chick size versus controls (chicks; body weight relative to mean/median of all chicks tested) | Chick weight (chicks; bovine polypeptides in conditioned media, 1 ml in ovo on day 16 of incubation, weighed on day of hatching, Saline 51.0) | cellular differentiation [2]
B1 | 0.985 | 0.927 | 0.968 | 1.026 | 0.9765 | significantly more cells | 0.721 | 0.784 | 0.548 | 0.6843 | induced a significant change in quaternary structure and/or cellular morphology | activates ERK1/2; also recorded: ERK1/2 activation |  |  |  |  |  |  | 
B2 |  |  |  |  |  |  |  |  |  |  |  |  | 66112 RFU | pro-inflammatory activity | enhanced expression and secretion | enhance trefoil 1 expression in AGS cells as well as enhance the secretion of trefoil 1 | falls just outside 2 standard deviations from the median of chick weights | 57.1 grams | induced cellular differentiation
